Key:
[1] = target: T1, recombinant biotinylated monomeric Fc fusion of murine Folate Receptor 1 (mu FolR1 ECD-AcTev-Fcknob-Avitag … (murine, UniProt P0DOX5 223-449 = IgG part, biotin on the C-terminal Avi tag)); experiment: SPR Biacore, affinity (monovalent), antibody captured via anti-Fab
T1 construct: also called muFolR1-Fc; murine FolR1
Protocol: (§1) The affinity of the interaction between the anti-FolR1 IgG or T cell bispecifics and the recombinant folate receptors was determined as described below (Table 26).
(§2) For affinity measurement, direct coupling of around 12000 resonance units (RU) of the anti-human Fab specific antibody (Fab capture kit, GE Healthcare) was performed on a CM5 chip at pH 5.0 using the standard amine coupling kit (GE Healthcare). Anti-FolR1 IgG or T cell bispecifics were captured at 20 nM with a flow rate of 10 μl/min for 40 sec, the reference flow cell was left without capture. […] The dissociation phase was monitored for 300 s and triggered by switching from the sample solution to HBS-EP. The chip surface was regenerated after every cycle using a double injection of 60 sec 10 mM Glycine-HCl pH 1.5. Bulk refractive index differences were corrected for by subtracting the response obtained on the reference flow cell 1. The affinity constants for the interactions were derived from the rate constants by fitting to a 1:1 Langmuir binding using the Bia Evaluation software (GE Healthcare).

[2] = target: T2, recombinant biotinylated monomeric Fc fusion of human Folate Receptor 1 (huFolR1 ECD-AcTev-Fcknob-Avi tag … (human, UniProt P0DOX5 223-449 = IgG part, biotin on the C-terminal Avi tag)); experiment: as above
T2 construct: also called huFolR1-Fc; human FolR1-Fc
Protocol: as §1, §2

[3] = target: T3, recombinant biotinylated monomeric Fc fusion of cynomolgus Folate Receptor 1 (cy FolR1 ECD-AcTev-Fcknob-Avi … (cynomolgus, UniProt P0DOX5 223-449 = IgG part, biotin on the C-terminal Avi tag)); experiment: as above
T3 construct: also called cyFolR1-Fc; cyno FolR1
Protocol: as §1, §2

[4] = target: T4, recombinant biotinylated monomeric Fc fusion of human Folate Receptor 2 (hu FolR2 ECD-AcTev-Fcknob-Avi tag … (human, UniProt P0DOX5 223-449 = IgG part, biotin on the C-terminal Avi tag)); experiment: SPR Biacore, single injection on immobilized antigen-Fc
T4 construct: also called FolR2-Fc
Summary of the method: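 Biacore T200 at 25 °C in HBS-EP (HEPES pH 7.4). Biotinylated FolR-Fc fusions captured on SA chip at about 300-400 RU. IgGs injected once at 500 nM for 60 s to assess cross-reactivity and specificity.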

B1: 36F2 IgG (antibody, V domains shown)
VH: QVQLVQSGAEVKKPGASVKVSCKASGYTFTSYYMHWVRQAPGQGLEWMGIINPSGGSTSYAQKFQGRVTMTHDTSTSTVYMELSSLRSEDTAVYYCARSFFTGFHLDYWGQGTLVTVSS
VL: EIVLTQSPGTLSLSPGERATLSCRASQSVSSSYLAWYQQKPGQAPRLLIYGASSRATGIPDRFSGSGSGTDFTLTISRLEPEDFAVYYCQQYTNEHYYTFGQGTKVEIK
**Q.** Which Kd [1] does the source give for B1 here?
**A.** Its Kd is 210 nM.

**Q.** What about the koff [1] of the same binder?
**A.** The koff was 0.0178 s⁻¹.

**Q.** What about the kon [1] of the same binder?
**A.** The kon was 83200 M⁻¹ s⁻¹.

**Q.** And the Kd [2]?
**A.** Its Kd is 730 nM.

**Q.** And the koff [2]?
**A.** Its koff is 0.0665 s⁻¹.

**Q.** And the kon [2]?
**A.** The kon was 91000 M⁻¹ s⁻¹.

**Q.** What about the Kd [3] of the same binder?
**A.** The Kd was 570 nM.

**Q.** And the koff [3]?
**A.** The koff was 0.0578 s⁻¹.

**Q.** And the kon [3]?
**A.** Its kon is 102000 M⁻¹ s⁻¹.

**Q.** Does B1 bind [4]?
**A.** Result: no binding (tested: 500 nM)

From patent US20220220224A1 (Hoffmann-La Roche, published 2022)
